Where no end group is shown, it is not given here. [ ]: non-standard residue; d: D form. pY = N[C@@H](Cc1ccc(OP(=O)(O)O)cc1)C(=O)O; pS = N[C@@H](COP(=O)(O)O)C(=O)O

For experiment [1], the target named is KEAP1 Kelch (kelch-like ECH-associated protein 1, Kelch domain) (human) (UniProt Q14145). Description: fluorescence polarisation; competition: unlabelled peptide in serial dilution against the protein domain (master mix at four times the KD) with its FITC-labelled probe peptide; 50 mM KPO4 or NaPO4 pH 7.5; Ki calculated from IC50.
Chain of KEAP1 Kelch (kelch-like ECH-associated protein 1, Kelch domain) (human) (Q14145 whole entry, the tested form may be a part): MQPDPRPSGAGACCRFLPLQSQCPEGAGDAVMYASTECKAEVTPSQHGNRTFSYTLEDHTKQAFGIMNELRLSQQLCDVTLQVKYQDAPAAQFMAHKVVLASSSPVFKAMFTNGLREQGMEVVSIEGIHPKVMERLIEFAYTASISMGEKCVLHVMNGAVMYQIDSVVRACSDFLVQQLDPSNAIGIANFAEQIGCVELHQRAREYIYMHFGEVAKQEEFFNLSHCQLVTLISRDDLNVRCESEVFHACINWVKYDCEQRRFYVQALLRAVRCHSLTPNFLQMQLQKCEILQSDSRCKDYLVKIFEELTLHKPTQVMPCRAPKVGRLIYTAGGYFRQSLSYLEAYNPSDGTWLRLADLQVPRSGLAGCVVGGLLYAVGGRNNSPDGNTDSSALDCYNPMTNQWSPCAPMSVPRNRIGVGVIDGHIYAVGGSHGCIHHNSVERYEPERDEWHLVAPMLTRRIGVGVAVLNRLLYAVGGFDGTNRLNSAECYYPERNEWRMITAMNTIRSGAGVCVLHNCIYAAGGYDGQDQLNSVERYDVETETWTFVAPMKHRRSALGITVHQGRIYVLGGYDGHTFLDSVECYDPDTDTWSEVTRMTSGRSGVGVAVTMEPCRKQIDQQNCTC
Experiment [2] concerns the target KPNA4 ARM (importin subunit alpha-3, armadillo repeat domain) (human) (UniProt O00629). Briefly: fluorescence polarisation; competition: unlabelled peptide in serial dilution against KPNA4 ARM (master mix at four times the KD) with the probe FITC-NCOR2(1307-1322), probe of the minor pocket; 50 mM KPO4 pH 7.5; Ki calculated from IC50.
Experiment [3] has the same target. Briefly: fluorescence polarisation; competition: unlabelled peptide in serial dilution against KPNA4 ARM (master mix at four times the KD) with the probe FITC-Myc(320-328), probe of the major pocket; 50 mM KPO4 pH 7.5; Ki calculated from IC50.

Chain of KPNA4 ARM (importin subunit alpha-3, armadillo repeat domain) (human) (O00629 whole entry, the tested form may be a part): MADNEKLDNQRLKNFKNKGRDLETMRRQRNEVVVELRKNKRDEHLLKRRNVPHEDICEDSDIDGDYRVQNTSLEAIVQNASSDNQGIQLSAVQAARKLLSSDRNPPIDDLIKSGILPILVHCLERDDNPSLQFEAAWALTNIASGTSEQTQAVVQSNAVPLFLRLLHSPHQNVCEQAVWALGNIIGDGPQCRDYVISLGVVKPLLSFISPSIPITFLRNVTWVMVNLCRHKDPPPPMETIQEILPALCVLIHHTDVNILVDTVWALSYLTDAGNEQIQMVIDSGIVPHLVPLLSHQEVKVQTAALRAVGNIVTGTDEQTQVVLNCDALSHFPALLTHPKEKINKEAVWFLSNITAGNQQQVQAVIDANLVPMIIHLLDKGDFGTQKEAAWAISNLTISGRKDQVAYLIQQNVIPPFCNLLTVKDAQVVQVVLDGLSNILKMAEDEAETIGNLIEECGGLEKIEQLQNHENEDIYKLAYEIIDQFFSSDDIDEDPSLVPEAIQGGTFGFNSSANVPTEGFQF

For YDPVTGEWKSLAKLPE-NH2 [KLHL24 335-350 peptide], in experiment [1], the IC50 was 80 µM and the Ki was 19 µM.
For GKKRTFDETVSTYVPL-NH2 [TPX2 312-327 peptide], in experiment [2], the half-maximal inhibitory concentration (IC50) was 0.41 µM and the Ki is 0.047 µM.
In the case of Ac-LIYVDKENGEPGTRVV-NH2 [PTTG1 4-19 peptide], the IC50 in experiment [1] was 3 µM.
For the molecule GFDAVTGEFTGMPEQW-NH2 [PAK1 88-103 peptide], in experiment [1], the IC50 is 44 µM and the Ki is 11 µM.
Ac-EISLKRSYESVEGNIK-NH2 [NCOR1 1240-1255 peptide, unphosphorylated]: in experiment [2], the half-inhibitory concentration (IC50) was 11 µM and the Ki is 3.6 µM.
Take PKRTYDMMEGRVGRAI-NH2 [NCOR2 1307-1322 peptide, unlabelled]: the concentration for half-maximal inhibition (IC50) in experiment [2] was 0.12 µM.
Regarding AGVKRSAAEMYGSVTE-NH2 [HNRNPC 95-110 peptide], in experiment [2], the IC50 is 0.5 µM and the Ki is 0.093 µM.
In the same order, the values of PFKRPHSTISDSSTSS-NH2 [PLEKHG4B 1183-1198 peptide] are 3.6 µM and 1.2 µM.

B1: NCOR1 1240-1255 peptide, pS1246 (peptide)
peptide: Ac-EISLKR[pS]YESVEGNIK-NH2
SMILES: CC[C@H](C)[C@H](NC(=O)[C@H](CC(N)=O)NC(=O)CNC(=O)[C@H](CCC(=O)O)NC(=O)[C@@H](NC(=O)[C@H](CO)NC(=O)[C@H](CCC(=O)O)NC(=O)[C@H](Cc1ccc(O)cc1)NC(=O)[C@H](COP(=O)(O)O)NC(=O)[C@H](CCCNC(=N)N)NC(=O)[C@H](CCCCN)NC(=O)[C@H](CC(C)C)NC(=O)[C@H](CO)NC(=O)[C@@H](NC(=O)[C@H](CCC(=O)O)NC(C)=O)[C@@H](C)CC)C(C)C)C(=O)N[C@@H](CCCCN)C(N)=O
As for B1, in experiment [2], the IC50 was 240 µM and the Ki is 81 µM.
Regarding SLAPVKRTYEQMEFPL-NH2 [ADNP 711-726 peptide], in experiment [2], the IC50 was 1.3 µM and the inhibitory constant (Ki) was 0.38 µM.
In the case of Ac-YKCRRQRQDQTLELVGL-NH2 [NKX2-5 192-207 peptide, K194R], in experiment [3], the IC50 is 98 µM and the inhibition constant (Ki) is 63 µM.
DHQFPAKRPRLSEPQG-NH2 [HJURP 675-690 peptide]: the IC50 in experiment [3] was 0.076 µM; in experiment [2], 170 µM. Further, the Ki in experiment [3] is 0.038 µM; in experiment [2], 63 µM.
On to ERENPSKRSRIERDID-NH2 [CTDSPL2 64-79 peptide], for which, in experiment [3], the 50% inhibitory concentration (IC50) was 1.9 µM and the inhibition constant Ki is 1.2 µM.
IDPSTGERFPVTDAVN-NH2 [PLEC 4459-4474 peptide]: in experiment [1], the half-inhibitory concentration (IC50) was 6.1 µM and the Ki was 1.5 µM.
In the case of GVKRTYSEVYPGQQYL-NH2 [ZMIZ2 264-279 peptide], in experiment [2], the IC50 is 0.43 µM and the Ki is 0.054 µM.

B2: NCOR1 1240-1255 peptide, pY1247 (peptide)
peptide: Ac-EISLKRS[pY]ESVEGNIK-NH2
SMILES: CC[C@H](C)[C@H](NC(=O)[C@H](CC(N)=O)NC(=O)CNC(=O)[C@H](CCC(=O)O)NC(=O)[C@@H](NC(=O)[C@H](CO)NC(=O)[C@H](CCC(=O)O)NC(=O)[C@H](Cc1ccc(OP(=O)(O)O)cc1)NC(=O)[C@H](CO)NC(=O)[C@H](CCCNC(=N)N)NC(=O)[C@H](CCCCN)NC(=O)[C@H](CC(C)C)NC(=O)[C@H](CO)NC(=O)[C@@H](NC(=O)[C@H](CCC(=O)O)NC(C)=O)[C@@H](C)CC)C(C)C)C(=O)N[C@@H](CCCCN)C(N)=O
Take B2: in experiment [2], the IC50 is 21 µM and the Ki was 6.8 µM.
For DLKRRLDSITSSQSSA-NH2 [KDR 958-973 peptide], the IC50 in experiment [3] is 22 µM; in experiment [2], 24 µM. Besides, the inhibition constant Ki was 14 µM in experiment [3] and 8.9 µM in experiment [2].
On to ELKRKLEQEQKLVEVL-NH2 [MKL2 572-587 peptide], for which, in experiment [2], the concentration for half-maximal inhibition (IC50) is 36 µM and the inhibition constant Ki was 13 µM.
As for EDSIEPPHKRLCLSSE-NH2 [DMTF1 44-59 peptide], in experiment [3], the IC50 is 0.13 µM and the Ki is 0.075 µM.
As for IPEKKQRLEEATTICL-NH2 [AFF2 864-879 peptide], in experiment [3], the half-maximal inhibitory concentration (IC50) is 2.3 µM and the Ki was 1.5 µM. Also, in experiment [2], the 50% inhibitory concentration (IC50) was 3800 µM and the inhibition constant Ki is 1420 µM.
Turning to Ac-YDEETGEFLPIQPAQH-NH2 [NFE2L2 77-91 peptide with an extra N-terminal Y, wild type], in experiment [1], the concentration for half-maximal inhibition (IC50) was 0.31 µM and the Ki is 0.071 µM.
With Ac-YDEEKGEFLPIQPAQH-NH2 [NFE2L2 77-91 peptide with an extra N-terminal Y, T80K], in experiment [1], the concentration for half-maximal inhibition (IC50) is 2540 µM and the Ki is 611 µM.
As for Ac-GIIDPSTGERFPVTDY-NH2 [PLEC 4457-4471 peptide with an extra C-terminal Y, wild type], in experiment [1], the IC50 is 1.5 µM and the Ki was 0.49 µM.

B3: NCOR1 1240-1255 peptide, pS1242 (peptide)
peptide: Ac-EI[pS]LKRSYESVEGNIK-NH2
SMILES: CC[C@H](C)[C@H](NC(=O)[C@H](CC(N)=O)NC(=O)CNC(=O)[C@H](CCC(=O)O)NC(=O)[C@@H](NC(=O)[C@H](CO)NC(=O)[C@H](CCC(=O)O)NC(=O)[C@H](Cc1ccc(O)cc1)NC(=O)[C@H](CO)NC(=O)[C@H](CCCNC(=N)N)NC(=O)[C@H](CCCCN)NC(=O)[C@H](CC(C)C)NC(=O)[C@H](COP(=O)(O)O)NC(=O)[C@@H](NC(=O)[C@H](CCC(=O)O)NC(C)=O)[C@@H](C)CC)C(C)C)C(=O)N[C@@H](CCCCN)C(N)=O
For B3, in experiment [2], the half-inhibitory concentration (IC50) is 31 µM and the Ki is 10 µM.
VEPETKRLKLAASEDH-NH2 [ZRANB3 571-586 peptide]: in experiment [3], the IC50 is 0.24 µM and the inhibition constant Ki was 0.14 µM.
As to Ac-YKCKRQRQDQTLELVGL-NH2 [NKX2-5 192-207 peptide, wild type], in experiment [3], the 50% inhibitory concentration (IC50) is 2.2 µM and the Ki was 6.8 µM.
For STMKRKHDEIQRSLPV-NH2 [ZBED9 651-666 peptide], in experiment [2], the IC50 is 2.4 µM and the Ki is 0.77 µM.
For the molecule Ac-YDEKTGEFLPIQPAQH-NH2 [NFE2L2 77-91 peptide with an extra N-terminal Y, E79K], in experiment [1], the IC50 was 1650 µM and the Ki was 397 µM.

What is called IC50 is the concentration at which inhibition is half-maximal. The Ki is the dissociation constant of the complex between target and ligand, obtained from inhibition or displacement.

The values are drawn from PMC8769072, “Proteome‐scale mapping of binding sites in the unstructured regions of the human proteome” (Molecular Systems Biology, 2022).
